Biological target: GAVP(N56K+C71V) N56K,C71V (VIVID numbering) (artificial) (UniProt Q04206)
Experiment: cell_activity

UniProt Q04206, sequence (Q04206 whole entry, stated change not applied): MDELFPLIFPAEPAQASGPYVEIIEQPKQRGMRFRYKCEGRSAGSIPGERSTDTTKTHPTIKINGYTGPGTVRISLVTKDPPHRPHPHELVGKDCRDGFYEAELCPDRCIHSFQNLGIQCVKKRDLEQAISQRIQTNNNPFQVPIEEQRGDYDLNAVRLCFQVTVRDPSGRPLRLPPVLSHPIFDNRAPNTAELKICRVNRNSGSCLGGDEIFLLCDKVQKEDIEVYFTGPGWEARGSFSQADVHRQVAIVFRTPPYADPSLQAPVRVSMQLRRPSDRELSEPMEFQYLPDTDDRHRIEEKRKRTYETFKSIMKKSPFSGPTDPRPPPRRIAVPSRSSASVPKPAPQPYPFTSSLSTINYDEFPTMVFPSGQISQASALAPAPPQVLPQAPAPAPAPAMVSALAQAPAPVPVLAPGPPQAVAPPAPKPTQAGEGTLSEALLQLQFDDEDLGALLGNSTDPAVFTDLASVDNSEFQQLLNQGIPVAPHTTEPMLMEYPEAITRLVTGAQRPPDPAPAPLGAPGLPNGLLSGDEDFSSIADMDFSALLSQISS

Substance | activity (HEK293 light/dark induction, also active in NIH3T3 and COS-7) [fold] | activity (HEK293, Gluc after 12 h light, 30-fold after 3 h) [fold]
5xUASG-TATA-Fluc | 200 | 
TCTAGACGGAGTACTGTCCTCCGAGCGGAGTACTGTCCTCCGACTCGAGCGGAGTACTGTCCTCCGATCGGAGTACTGTCCTCCGCGAATTCCGGAGTACTGTCCTCCGAAGACGCTAGCGGGGGGCTATAAAAGGGGGTGGGGGCGTTCGTCCTCACTCTAGATCTGCGATCTAAGTAAGCTTGGCCACCATGGGAGTCAAAGTTCTGTTTGCCCTGATCTGCATCGCTGTGGCCGAGGCCAAGCCCACCGAGAACAACGAAGACTTCAACATCGTGGCCGTGGCCAGCAACTTCGCGACCACGGATCTCGATGCTGACCGCGGGAAGTTGCCCGGCAAGAAGCTGCCGCTGGAGGTGCTCAAAGAGATGGAAGCCAATGCCCGGAAAGCTGGCTGCACCAGGGGCTGTCTGATCTGCCTGTCCCACATCAAGTGCACGCCCAAGATGAAGAAGTTCATCCCAGGACGCTGCCACACCTACGAAGGCGACAAAGAGTCCGCACAGGGCGGCATAGGCGAGGCGATCGTCGACATTCCTGAGATTCCTGGGTTCAAGGACTTGGAGCCCATGGAGCAGTTCATCGCACAGGTCGATCTGTGTGTGGACTGCACAACTGGCTGCCTCAAAGGGCTTGCCAACGTGCAGTGTTCTGACCTGCTCAAGAAGTGGCTGCCGCAACGCTGTGCGACCTTTGCCAGCAAGATCCAGGGCCAGGTGGACAAGATCAAGGGGGCCGGTGGTGACTAA (double strand) [5xUASG-TATA-Gluc] |  | 100

From patent US20130345294
